Source: US20220340658A1 (WASHINGTON UNIVERSITY, published 2022)

Biological target: SARS-CoV-1 spike protein (SARS-CoV-1, UniProt P59594 14-1190)
Test: ELISA, hybridoma supernatant

B1: SARS2-38 (antibody, V domains shown)
VH: QVQLKESGPGLVAPSQSLSITCTVSGFSLTRYGVHWVRQPPGKGLEWLGVIWADGSTYYNSALMSRLSISKDNSKSQVFLNMNSLQTDDTAKYYCARDGRGYDDYWGQGTTLTVSS
VL: QIVLTQSPAIMSASPGEKVTMTCSASSTVSFIYWYQQKPGSSPRLLIYDTSNPASGVPVRFSGSGCGTSYYLTISRMEAEDAATYYCQQWNTYPLTFGAGTKLELK
- binding result: no binding
